Bridge positions count the residues as written; N and C are the ends. Square brackets hold non-standard residues; d marks the D form. Ends that are not written are not given here. Aib = CC(C)(N)C(=O)O
T1: GIP receptor (GIPR)
T1 sequence (P48546 whole entry, species assumed, looked up): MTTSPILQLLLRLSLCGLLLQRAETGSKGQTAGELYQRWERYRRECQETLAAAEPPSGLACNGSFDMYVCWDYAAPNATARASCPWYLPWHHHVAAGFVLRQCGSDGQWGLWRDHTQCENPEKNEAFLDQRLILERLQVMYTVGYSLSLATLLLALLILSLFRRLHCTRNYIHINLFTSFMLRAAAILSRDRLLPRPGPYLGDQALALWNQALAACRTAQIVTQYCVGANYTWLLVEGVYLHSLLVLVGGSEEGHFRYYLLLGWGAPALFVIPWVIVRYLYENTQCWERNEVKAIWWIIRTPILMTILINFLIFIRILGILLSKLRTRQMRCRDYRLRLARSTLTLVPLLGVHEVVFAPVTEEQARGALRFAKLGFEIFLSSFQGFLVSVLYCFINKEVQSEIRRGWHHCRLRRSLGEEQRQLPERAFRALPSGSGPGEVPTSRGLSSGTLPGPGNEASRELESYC

B1: Example 5 (peptide)
peptide: H[Aib]HGTFTSDYSIYLEKKYA[Aib]KFVQWLLEGGPSSGAPPPS-NH2
modifications: bridge 17-21; not fully specified (residues 17, 21, bridges); also: staple structure only in drawing
B2: Example 4 (peptide)
peptide: H[Aib]HGTFTSDYSIYLEKKYA[Aib]EFVKWLLKGGPSSGAPPPS-NH2
modifications: bridge 24-28; not fully specified (residues 24, 28, bridges); also: staple structure only in drawing

How the values were obtained:
Test in all cases: cell-based or functional assay
[1] = biological target: T1, GIP receptor (GIPR)
[2] = biological target: GCG receptor (GCGR)
[3] = biological target: GLP-1 receptor (GLP-1R)

Binder	GIP-1 EC50 (nM), cAMP assay on CHO cells with GIPR [1] [nM]	GCG EC50 (nM), cAMP assay on HEK293 cells with GCGR [2] [nM]	GLP-1 EC50 (nM), cAMP assay on HEK293 cells with GLP-1R [3] [nM]
B1	0.007	0.012	0.029
B2	0.016	0.143	0.023
